Assay results reported in publication PMC3773880.

Experiments:
[1] = molecular target: low molecular weight gingipain R (RgpB) (Porphyromonas gingivalis) (UniProt P95493); experiment: enzyme inhibition kinetics
[2] = molecular target: high molecular weight gingipain R (HRgpA) (Porphyromonas gingivalis)
[3] = molecular target: high molecular weight gingipain R (HRgpA) (Porphyromonas gingivalis); experiment: enzyme inhibition kinetics

Substance	Ki [1] [nM]	also measured
PD_(RgpB) R159K (domain or fragment)	7.7	
PD_(RgpB), recombinant N-terminal prodomain of RgpB (from UniProt P95493 25-229) (domain or fragment)		IC50 of inhibition of amidolytic activity (L-BAPNA), 10 nM enzyme [2]: 12.6 nM; IC50 of inhibition of aminopeptidase activity (H-Arg-AMC), 10 nM enzyme [2]: 4.9 nM; IC50 of inhibition of proteolytic activity (Azocoll), 10 nM enzyme [2]: 5.8 nM; Ki [3]: 5.3 nM
PD_(RgpB) R66A (domain or fragment)	4.9	
PD_(RgpA), recombinant N-terminal prodomain of RgpA (from UniProt P28784 24-227) (domain or fragment)		Ki [3]: 0.85 nM
PD_(RgpB) R102K (domain or fragment)	45.6	
PD_(RgpB) R66K (domain or fragment)	31	
PD_(RgpB) R102A (domain or fragment)	> 5000	
PD_(RgpB) R102Q (domain or fragment)	> 5000	
PD_(RgpB) R102E (domain or fragment)	> 5000	
